Protein production data for 13 sequences are collected here from a protein production outcome set (Wang et al. 2014).

The data set is described as follows: label from the status in PepcDB records.
On to “MKPDDLPSDVSSDPLLRLRRQISDEASQCVACGLCVPHCPSYRVTLSEADSPRGRIALMSGVAAGRIPMNARFALHMDRCLTCRACEAVCPNHVRFGELIDDAREMISSPPLEFGGNNPGARVSSFRKWVERELIARPSRIDALRPLLRFYQRSGLQKWVRKSGLLGKTKLALLEAQIPFIDQPRSSSWSVVYPAVGKPRGEVGLFLGCVARVADATTLDAALFVLNQLGYVVHVPTGQTCCGALHQHRGDMDAAAQLERQNVEAFAGLDLGAIITTASGCGAQLSEYSSFSGSQRTTRAPAVSSQAGGETTRRSPPKVLDISEFLAEAEGWEDARFQPLPHKILVHEPCTLRNVLRASTYAYKLLERIPQAQVVPLAGNDQCCGAAGTYFLDQPEISAALLEDKVTALKAGQACYLATSNVGCALHIAAGLRRPGLGIEVIHPVTLIARQMGMQSQSLK”, for which the protein production result is “failed”.

Regarding “MSTRPERERASTSTDAVLQATVALSAGHKPAFRGFVKDPPRARAHAAAMFVSNAREAEPFVAPDLSEIRVLVDRATVGVASVSLAHATVAAGAETVWHRLQATDEIYFVLSGRGLVSVGDESGEVGPGDAVWIPAGVPQKIRALGSVPLTFLCAWGPAYLPERDQRMGEAAVIGAWPLEHHHHHH”, the protein production result was “not failed”.

With “MNSESKLSQKANSSFTMDDFAKALENHDYQFQKGQVVYGKVFQLDPDGAYVDIGGKSSAYIPRDEASLRAVNDLAAVLPLHEELEFIIIREQDAEGQVTLSRRQLEINHIWEKLAQMKENSQPVDVKVTGVNKGGVTVDVQSLRGFIPRSHLTERDNLEALKGHTLTAGFLEVDRNNKKLVLSQRLVTRSSNFNQLEIGQLVEGKITGIKPFGVFVDLNGLSALLHIKQVSQKFIESLEKVFQPGQTIKAIVIDLDQGKGRVAISTRALENFPGEVLENFEEVMASAEARANRAANKMNEGGVGV”, the protein production result is “failed”.

On to “MTLLWGLLSGMAVIGGLIGVVAGLVGTTAPRRAPLQQRWQALRAGKDQGEDVRLRRRTLAALAVVVFVAVWLVSGNFVGGALLGVAVVGVPWLISPAQMAQERIGQLEALSEWTQRLAGLLRLGMGLEQAMITSRQGAPDELAPQIVNLSDRLRLGWRPDGALRAFAEELNDVTADKVVAALILSVNDRGPGLAQALEDLAGTVRDEVAKKRAIEADRAKPRTTVRWMTVITVGVVVAGFFVPSYTKPYSTLLGQLVLAFLTVGFIGVLALMRQLGAFRRIPRFLITDPSSTVRLPLAGDGAGRAGRWP”, for which the protein production entry is “failed”.

For “MKRKAFLALGFLALGLGVSQVGPFRARLEAAIQTGGEAFAQVMLSQDKAQALCTQYRDKLPPELVPAFLAEQRALIKYPASGKLMGDWKNGEKVFTDPKRGNCYACHQGDPREVAYGTMGPSLTGYGQRGLSEAVVRYTYEKIYNAWAFVPCSLMYRGGVHGYFTPEETADLVAYLLSPESPINRR”, the protein production result is given as “failed”.

For the sequence “MSAYEAVRIRLDPTPRQTRLLESHAGGARFAYNLMLAHVRRQISLGEKPDWTLYAMRRWWNEWKDEIAPWWRENSKEAYGSAFEWLSQALRNWSDSRKGRRAGRRVGWPKYKSKRSSVPRFAYTTGSFGLIEDDPKALKLPRIGRVHCMENATERVHGRRIVRMTVSRHAGFWYAALTVERPTESVPAKNRKQKNRNRQVGVDLGVRTLATLSDGTTFPNPRNYVRTQRKLRHAQQSLSRRDRGMSHGCGSKRYNRALERVRRIHARIAAQRADNIGKLTTWLADNYSDISIEDLNVQGMSHNRRLAKHVLDADFREFRRQLEYKTARAGTRLHVIDRWYPSSKTCSNCGTVKAKLSLSERVYHCGKCGLVIDRDVNAAINIQVAGSAPETLNARGGSVRQTRLECGTMRHPAKREPSGGDSRVRLGAGLGNEAMQMTSL”, the protein production entry is reported as “failed”.

As to “DQKGDKVVIRGNNYVSIATGLNWYLKYYAGIHLSWNGMQAKLPAVLPPVTKKERRETTLPYRYDLNYCTFSYSMAFWDWNRWEKEIDWMALHGINIPLAVTGAEAVWHNVLDKLGYTKTEINEFISGPGFFAWWLMNNLEGWGGPNPDSWYTRQIALQKKILKRMREYGIEPVLPGYCGMVPHNAKEKLGLNVSDPGTWCGYRRPAFLQPSDPRFEEISSLYYKELEKLYGKANFYSMDPFHEGGNTAGVDLDAAGKAVMKAMKKANPKAVWVAQAWQANPRPKMIENLKAGDLLILDLTSECRPQWGDSTSEWYRKNGYGQHDWIYCMLLNYGGNVGLHGKMDNVIDNFYLAKADPHASATLKGVGMTPEGIENNPVMYELVMELPWRPDRFTKEEWLKEYVKARYGVDDPVVQAAWTNLANSIYNSPKNLTQQGTHESVFCARPAEDVYQVSSWSEMKDYYRPQEVIEAARLMVSVADRFKGNNNFEYDLVDIVRQALAEKGRLMQKAVTAAYRAGDKQLFALASGKFLDLILLQDKLLGTRPEFRVGKWIEEARALGDTPEEKELYEWNARVQITTWGNRNAADYGGLRDYAHKEWNGLLKDFYYMRWKLYFDFLSQRIEGKTPAEIDFYAIEEPWTKAANPYSAEAEGDCIEVAKQVMQAVE”, the protein production entry is “failed”.

As for “MKFLPYIFLLCCGLWSTISFADEDYIEYRGISSNNRVTLDPLRLSNKELRWLASKKNLVIAVHKSQTATLLHTDSQQRVRGINADYLNLLKRALNIKLTLREYADHQKAMDALAEGEVDIVLSHLVTSPPLNNDIAATKPLIITFPALVTTFHDSMRPLTSPKPVNIARVANYPPDEVIHQSFPKATIISFTNLYQALASVSAGHNDYFIGSNIITSSMISRYFTHSLNVVKYYNSPRQYNPLLTRKESVILNEVLNRFVDALTNEVRYEVSQNRLDTGNLAFLNKPLELTEHEKQWIKQHPNLKVLENPYSPPYSMTDENGSVRGVMGDILNIITLQTGLNFSPITVSHNIHAGTQLSPGGWDIIPGAIYSEDRENNVLFAEAFITTPYVFVMQKAPDSEQTLKKGMKVAIPYYYELHFELKEMYPEVEWIQVDNASAAFHKVKEGELDALVATQLNSRYMIDHYYPNELYHFLIPGVPNASLSFAFPRGEPELKDIINKALNAIPPSEVLRLTEKWIKMPNVTIDTWDLYSEQFYIVTTLSVLLVGSSLLWGFYLLRSVRRRKVIQGDLENQISFRKALSDSLPNPTYVVNWQGNVISHNSAFEHYFTADYYKNAMLPLENSDSPFKDVFSNAHEVTAETKENRTIYTQVFEIDNGIEKRCINHWHTLCNLPASDNAVYICGWQDITETRDLINALEVEKNKAIKATVAKSQFLATMSHEIRTPISSIMGFLELLSDSGLSKEQRVEAISLAYATKQSVLGLIGEILDVDKIESGNYQLQPQWVDIPTLVQNTCHSFGAIAASKSIALSCSSTFPEHYLVKIDPQAFKQVLSNLLSNALKFTTEGAVKITTSLGHIDDNHAVIKMTIMDSGSGLLQEEQQQLFKRYSQTSAGRQQTGSGLGLMICKELIKNMQGDLSLESHPGIGTTFTITIPVEISQQVATVEAKAEQPITLPEKLSILIADDHPTNRLLLKRQLNLLGYDVDEATDGVQALHKVSMQHYDLLITDVNMPNMDGFELTRKLREQNSSLPIWGLTANAQANEHEKGLSCGMNLCLFKPLTLDVLKTHLSQLYQVAHIAPQYRHLDIEALKNNTANDLQLMQEILMTFQHETHKDLPAAFQALEAGDNRTFHQCIHRIHGAANILNLQKLINISHQLEITPVSDDSKPEILQLLNSVKEHIAELDQEIAVFCQKND”, the protein production entry is on record as “failed”.

In the case of “MTQNVLNERPAGQKPVALSSFRGCINGLYGDVLQGWAIDITQPDQRPVIEVFVDGASVALARADQHEPNAPHGDHFHGFTVQLRQSLLADANRITAQIANTGIHLEGEIELPSQPPQETAAVASQVWHTGGLRVGGWSWDPQAPHRHVVVTLREGSRVVAQVTCNTHHQALAYRATSDHGFAIDLPWELADGKLHVIEVTNDLGQSLPGSPIRLRCRPEGLEGLLHQLELKPDAAMQALVAEVAKEQSSRLPKSAGWQHYPRWYDAFQKREPIAAIPSRFRPGLLLLSEGDATLEKISLDSLGDDAESVHQLAKAAPADLLPAVEQLLAAGCDSIIQIAAGDKLAPRAMAQLRNLLEEGCAWAYADCDRDGPQGQRSQPWFKPVWDIDLFIGADIFSTGAIFSAAIVKEALALLKAGKKQSAINRHDLIAGIALATELNGRSVTHLPRVLYHRSSDTCTSPEQAAPSKQRKDAVAWLCQGLAPGAHVSAVPDYPALLRAHWPLPEQLPRVSLIVPTRDQYKLLHACIEGLLNNTDYPDLEIIVVDNQSTDPQTLAYLAELKQRGVKILAHPHPFNYSTINNRAASAATGELIGLVNNDIEIIESGWLKEMVSQALRPGIGAVGAKLLWPNRMVQHGGVVVGVNGLAAHAGNTLEQRDAGYLGMNQVTRRQSAVTAACLLLRKSLFDSIQGLDERAFPVAFNDVDLCLRIHELGLRNVWTAFAQLIHAESASRGKDISPEKMARAQREQQLFTERWSVSYRDPYYHPALSLDYLTGPYGGLSLPPEPEYCAPRKLASSETHGHIYLADPS”, the protein production result is reported as “failed”.

Take “MKKQLIKSSTFRTLEVIIITVISLVLTPYLIHHLGDAHYGLWILILSALGWFNFIDLGFAYAVQRNIVLALENKDNHRINIVFSVAVALFSVLGFIAAFCVLVLAFFPELLGINEKEQSIATIAFSILAIKVFLDFIMNCFHGFFTAYLRMDIDANLGTLNMVVKSILVFYLIIDMNIYGAVFATIAADILTHSLKMHFARKLHPEFKFVLHLVKFSEVRQLFAFSKHLILMGMAKSVNRRVDPIIISHLLGLKFVAIYNVINSLMNQVESLVGAIVGVFQPVLTKMVARNTGLDGTFKLIISINFFTVILLYMPLAILAEDFITLWIGLDYAQAGQLAPILGFAYICRTVSRPISSLLLAKAQHQLLSVVNLLGALLNIGLSLVLGSQWGLLGIAIATACSFFVSDVILHLVLLNKYTELPVLKPILEFIKLVVLYILLVVLGISMMQLFEPLNWGQLIIAAIACVCIALLIAWPMLLDKEVKQKLLGMLIKTGKAHD”: the protein production result was “failed”.

Regarding “MTLETAFMLPVQDAQHSFRRLLKAMSEPGVIVALHQLKRGWQPLNIATTSVLLTLADNDTPVWLSTPLNNDIVNQSLRFHTNAPLVSQPEQATFAVTDEAISSEQLNALSTGTAVAPEAGATLILQVASLSGGRMLRLTGAGIAEERMIAPQLPECILHELTERPHPFPLGIDLILTCGERLLAIPRTTHVEVC”, the protein production result is given as “not failed”.

“MEITKRIEELREEMVESLKKFISINSVNPAFGGPGEKEKADWLEGLLRDFGFEVDRCDVRDDRGIWRSNIVAKIPGKNREKTLWIVTHIDTVPPGDLSLWETDPFVPVVKDGKVYGRGAEDNGGSMIASIYAGKALIDLGITPEYNFGLALVADEEAGSEYGIQYLIEKGLFSPEDMFLVPDAGNEKGDFIEIAEKSILWFKVMVNGKQGHASRPQTTENALRKGAHLITEIDEALHRKYSDRDELFDEPLSTFEPTRAEKTVDNVNTVPGRFVFYFDCRVLPRYNLDEVLSIVKSILDGRGAELEVVVKQPAPEPTPPDSELVVKLSNVLRSLRGLEAKVGGIGGGTCAAFFRKKGWPAVVWSTIDETAHQPNEYRRISHMVEDAKVFALLGTER”: the protein production result was “not failed”.

Take “MKKLINRVDDVLSEQLQGFAKAHPEINLHPSSFYVTRHDAPVKGKVALLSGGGSGHEPMHAGFVGKGMLDGACPGEIFTSPTPDKMYDCAKAIDSGEGVLMIVKNYTGDVLNFETATELLHDEGVKIATVLVDDDVAVKDSLYTAGRRGVANTVLMEKLLGAAAERGDTLDDLVKLGHQINNNGFSIGIALQACTVPAAGKPSFTLPENEMEFGVGIHGEPGIDRRPFTSLNDTVDAMFNTLIENGHYQRTIRSWDRVNGDWIEETQEKQPLKSGDRVIALVNNLGATPLSELYGVYHRLALCCENFGLNIERSLIGSYCTSLDMSGISITLLKVDDALLTLWDAPVATPAMTK”: the protein production result is “failed”.
